According to US20040071701A1, “Use of NGF-antagonists for the prevention or treatment of chronic visceral pain” (priority 2002, published 2004):

Tests used:
TNBS-treated rats = assay: Colonic distension-induced pain threshold in TNBS-treated rats (chronic colonic allodynia); format: in vivo, rat; details: 30 mg/kg s.c. in 20% cyclodextrin 30 minutes before distension, mean +/- SEM (n=7-8), vehicle 17.8+/-1.8, p<0.01
Experimental: (§1) Adult male rats of the Wistar strain, 320 to 350 g in weight (obtained from the Janvier farm, Le Genest-Saint-Isle, France) were used for all the experiments. They were kept under controlled conditions of temperature (20+/−1° C.), humidity (50+/−5%) and lighting (light from 7 to 19 hours). The animals were starved of food for 18 hours before the beginning of the experiments, the supply of water being maintained.
(§2) Distension studies were carried out on waking rats in isobaric mode, using pressure increments of 5 mm of mercury every thirty seconds. A latex balloon, placed in the distal part of the colon is linked to an electronic barostat. The pain threshold is defined as the pressure inducing the first abdominal contraction. Each rat is subjected to four distension trials so as to increase the reproducibility of the test. The mean of the pressure values is calculated on the thresholds observed for the four successive distensions.
A laparotomy is carried out on rats anaesthetized with acepromazine (12 mg/kg i.p.) and ketamine (80 mg/kg i.p.) so as to inject into the proximal colon the trinitrobenzenesulphonic acid (TNBS) (50 mg/kg) in ethanol at 30%. The rats are then placed in individual cages. The colonic distension experiment is performed seven days after the administration of TNBS. […]

naïve rats = assay: Colonic distension-induced pain threshold in naïve rats (isobaric balloon distension); format: in vivo, rat
Experimental: as §1, §2
2.5 S-NGF obtained from mouse submaxillary gland (marketed by the company SIGMA under the reference N-6009) is dissolved in 0.1% bovine serum albumin (BSA). Into the naïve rats, 0.1 ng to 100 ng of NGF are injected by the i.p. route, 30 minutes before the distension.
Naïve rats were subjected to distension experiments with a balloon placed in the distal part of the colon. […]

Molecule: O=C1c2cccc3cc([N+](=O)[O-])cc(c23)C(=O)N1NCCO [ALE-0540]
- colonic pain threshold (TNBS-treated rats): 37.6+/−4.5 mmHg

B1: NGF: 2.5 S-NGF obtained from mouse submaxillary gland (SIGMA reference N-6009) (protein, UniProt P01139 122-241, looked up)
Beta-nerve growth factor: SSTHPVFHMGEFSVCDSVSVWVGDKTTATDIKGKEVTVLAEVNINNSVFRQYFFETKCRASNPVESGCRGIDSKHWNSYCTTTHTFVKALTTDEKQAAWRFIRIDTACVCVLSRKATRRG
modifications: Beta-nerve growth factor
- colonic pain threshold (naïve rats; naïve Wistar rats, 1 ng of NGF i.p. 30 minutes before distension, control (BSA) about 44 mmHg): less than 20 mmHg
- effect on threshold of pain in the colon (naïve rats; naïve rats, increasing doses of NGF (0.1 ng to 100 ng) i.p.): significant reduction
